Results: patent US12600782 (BIOTHEUS, dated 2026)
Positions count from the first letter of the chain named. Read-outs that look alike come from different tables or passages of the source.

T1: human PD-L2 on CHO cells (CHO-hPD-L2 cells) (human, UniProt Q9BQ51 20-273)
T1 construct: whole, on cells; also called CHO-K1-PD-L1/PD-L2
T1 sequence (looked up): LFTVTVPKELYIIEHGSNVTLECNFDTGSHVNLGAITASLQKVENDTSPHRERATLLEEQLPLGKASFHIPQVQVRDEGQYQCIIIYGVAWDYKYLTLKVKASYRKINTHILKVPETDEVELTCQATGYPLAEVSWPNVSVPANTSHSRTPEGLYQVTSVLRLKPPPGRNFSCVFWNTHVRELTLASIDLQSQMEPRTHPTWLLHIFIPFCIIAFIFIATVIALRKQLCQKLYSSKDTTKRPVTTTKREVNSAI

B1: human PD-L2 protein (purchased from AcroBiosystems) (ligand, UniProt Q9BQ51 20-219, looked up)
chain: LFTVTVPKELYIIEHGSNVTLECNFDTGSHVNLGAITASLQKVENDTSPHRERATLLEEQLPLGKASFHIPQVQVRDEGQYQCIIIYGVAWDYKYLTLKVKASYRKINTHILKVPETDEVELTCQATGYPLAEVSWPNVSVPANTSHSRTPEGLYQVTSVLRLKPPPGRNFSCVFWNTHVRELTLASIDLQSQMEPRTHP
modifications: biotinylated in the blocking assays
notes: Bought soluble protein; also called PD-L2 antigen; biotinylated human PD-L2 protein
B2: K-Yr-13&14-02 (antibody, V domains shown)
VH: QVQLVESGGGLVKAGDSLRLSCAASGHTFIIYAIGWFRQAPGKEREFVATINWSGSMTNYTDSVKGRFTISRDNAKNTVYLQMNSLKPDDTAIYYCAAYVGATISTAHSRYDYWGQGTQVTVSS
notes: Anti-PD-L1 heavy chain antibody: VHH linked to human IgG1 (LALA) Fc; the junction is not described
B3: HZ-K-Yr-13&14-02-3 (antibody, V domains shown)
VH: B2 VH with A14P, D16G, E44G, R45L, T61A, I93V, Q119L
notes: Humanized anti-PD-L1 heavy chain antibody: VHH linked to human IgG1 (LALA) Fc; the junction is not described; also called HZ-K-13&14-02-3
B4: HZ-D-Na-96-3 (antibody, V domains shown)
VH: EVQLVESGGGLVQPGGSLRLSCAASGRTFSSMTIGWFRQAPGKEREFVSGIGWTSGLTVYADSVKGRFTISRDNAKNSMYLQMNSLKPEDTAVYYCAADSMNRGQFDYWGQGTLVTVSS
notes: Humanized anti-PD-L2 heavy chain antibody: VHH linked to human IgG1 (LALA) Fc; the junction is not described
B5: Bi-203-204 (bispecific antibody, human IgG1, kappa, L234A L235A, V domains shown)
V domain 1: B2 VH with A14P, D16G, E44G, R45L, T61A, I93V, Q119L
V domain 2: B4 VH with E44G, R45L, K87R, P88A
notes: Formula III + IV format
B6: HZ-D-Na-96-1 (antibody, V domains shown)
VH: B4 VH with E44G, R45L, K87R, P88A
notes: as for B4
B7: D-Na-96 (antibody, V domains shown)
VH: QVQLVESGGGLVQAGASLRLSCAASGRTFSSMTIGWFRQTPGKEREFVAGIGWTSGLTVYADSVKGRFTISRDNAEKTMYLHMNNLKPEDTSVYYCAADSMNRGQFDYWGQGTQVTVSS
notes: Anti-PD-L2 heavy chain antibody: VHH linked to human IgG1 (LALA) Fc; the junction is not described

Key:
[1] = biological target: human PD-L1 protein (purchased from AcroBiosystems) (human) (UniProt Q9NZQ7); test: BLI (ForteBio), antibody on AHQ sensor, 100 nM PD-L1 antigen, 1:1 model
Chain of human PD-L1 protein (purchased from AcroBiosystems) (human) (Q9NZQ7 19-238 limits assumed): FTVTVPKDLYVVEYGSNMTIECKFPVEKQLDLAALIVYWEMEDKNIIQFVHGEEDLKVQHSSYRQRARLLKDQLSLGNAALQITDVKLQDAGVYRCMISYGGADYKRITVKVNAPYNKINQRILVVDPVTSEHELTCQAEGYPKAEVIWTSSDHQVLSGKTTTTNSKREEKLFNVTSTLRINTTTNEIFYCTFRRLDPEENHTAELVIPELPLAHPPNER

[2] = biological target: human PD-L1 on CHO cells (CHO-hPD-L1 cells) (human) (UniProt Q9NZQ7); test: flow cytometry on CHO-hPD-L1 cells, PE anti-human IgG-Fc, MFI; table under the plot, unit from the concentration axis
Chain of human PD-L1 on CHO cells (CHO-hPD-L1 cells) (human) (Q9NZQ7 19-290): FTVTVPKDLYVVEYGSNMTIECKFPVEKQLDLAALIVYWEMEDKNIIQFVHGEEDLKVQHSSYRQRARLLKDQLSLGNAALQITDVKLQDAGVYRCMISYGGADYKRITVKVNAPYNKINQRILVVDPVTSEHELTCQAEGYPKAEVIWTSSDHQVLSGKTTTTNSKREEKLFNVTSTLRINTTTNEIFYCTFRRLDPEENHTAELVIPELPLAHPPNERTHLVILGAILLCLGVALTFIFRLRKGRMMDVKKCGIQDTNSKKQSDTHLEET

[3] = biological target: human PD-L1 protein (purchased from AcroBiosystems) (human) (UniProt Q9NZQ7); test: flow cytometry blocking assay: antibody pre-incubated with biotinylated human PD-L1 protein (1 ug/ml), binding of PD-L1 to CHO-hPD-1 cells read as MFI; falling curve, the table under the plot calls the half-maximal concentration EC50; unit from the concentration axis
[4] = biological target: human PD-L1 protein (purchased from AcroBiosystems) (human) (UniProt Q9NZQ7); test: BLI (ForteBio), antibody on AHQ sensor, 100 nM PD-L1 antigen, 1:1 model; remark: listed apart in the source
[5] = biological target: T2, human PD-1 on CHO cells (CHO-hPD-1 cells) (human, UniProt Q15116 25-288); test: flow cytometry: biotinylated human PD-L2 protein (1 ug/ml) on CHO-hPD-1 cells, no antibody
T2 construct: whole, on cells
T2 sequence (Q15116 25-288): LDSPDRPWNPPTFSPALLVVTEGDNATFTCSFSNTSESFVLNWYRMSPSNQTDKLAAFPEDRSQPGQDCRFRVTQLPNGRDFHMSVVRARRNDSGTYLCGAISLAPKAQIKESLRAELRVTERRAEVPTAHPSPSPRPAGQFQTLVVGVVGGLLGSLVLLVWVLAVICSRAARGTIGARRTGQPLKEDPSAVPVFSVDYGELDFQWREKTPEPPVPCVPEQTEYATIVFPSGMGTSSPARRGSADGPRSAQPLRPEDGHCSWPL
Description: (§1) CHO cells overexpressing human PD-1 (CHO-hPD-1 cells) were generated by transfection of the pCHO1.0 vector (purchased from Invitrogen™) cloning human PD-1 cDNA (purchased from Sino Biological). The expanded CHO-hPD-1 cells were adjusted to a cell density of 2×10⁶ cells/ml, and were added to 96-well flow plate at 100 μl/well, and centrifuged for later use. The purified mutant sample was diluted with PBS and diluted 3 times from […] for 12 points. […] The co-incubation sample was added to the above-mentioned 96-well flow plate with cells 100 μl/well, incubated at 4° C. for 30 min, and washed twice with PBS. APC goat anti-mouse IgG (minimum×reactive) antibody diluted 100 times with PBS (purchased from Biolegend®) was added at 100 μl/well, incubated at 4° C. for 30 min, and washed twice with PBS. PBS was added at 100 μl/well to resuspend cells, and detection was performed on a CytoFlex (Bechman) flow cytometer and the corresponding MFI was calculated.

[6] = biological target: T3, human PD-L1 on CHO cells (CHO-hPD-L1 cells) (human, UniProt Q9NZQ7 19-290); test: flow cytometry on CHO-hPD-L1 cells, PE anti-human IgG-Fc, median fluorescence intensity (MFI)
T3 construct: whole, on cells; also called CHO-K1-PD-L1/PD-L2
T3 sequence (Q9NZQ7 19-290): as the sequence (Q9NZQ7 19-290) above

[7] = biological target: T4, human PD-L1 protein (purchased from AcroBiosystems) (human, UniProt Q9NZQ7 19-238, biotinylated in the blocking assay); test: BLI (ForteBio), antibody on AHQ sensor, 100 nM PD-L1 antigen, 1:1 model
T4 construct: Bought soluble protein; also called PD-L1 antigen; biotinylated human PD-L1 protein
T4 sequence (Q9NZQ7 19-238 limits assumed): as the sequence (Q9NZQ7 19-238 limits assumed) above
Description: (§2) ForteBio affinity determination was carried out according to existing methods (Estep, P et al., High throughput solution-based measurement of antibody-antigen affinity and epitope binning. MAbs, 2013.5(2): p. 270-8). In short, the sensor was equilibrated for 30 min under the line of the analysis buffer, and then the baseline was established after online detection for 60 s. The purified antibody obtained as described above was loaded onto the AhQ sensor online. […] Kinetic analysis was performed using a 1:1 binding model.

[8] = biological target: T3, human PD-L1 on CHO cells (CHO-hPD-L1 …); test: flow cytometry on CHO-hPD-L1 cells, PE anti-human IgG-Fc, MFI; table under the plot, unit from the concentration axis
[9] = biological target: T4, human PD-L1 protein (purchased from …); test: BLI (ForteBio), antibody on AHQ sensor, 100 nM PD-L1 antigen, 1:1 model; remark: listed apart in the source
Description: as §2
(§3) The experimental method was the same as that in Example 1.5.

[10] = biological target: T4, human PD-L1 protein (purchased from …); test: flow cytometry blocking assay: antibody pre-incubated with biotinylated human PD-L1 protein (1 ug/ml), binding of PD-L1 to CHO-hPD-1 cells read as MFI; falling curve, the table under the plot calls the half-maximal concentration EC50; unit from the concentration axis
Description: (§4) The expanded CHO-hPD-1 cells were adjusted to a cell density of 2 ×10^6 cells/ml, and were added to 96-well flow plate at 100 μl/well, and centrifuged for later use. The purified mutant sample was diluted with PBS and diluted 3 times from […] for 12 points.
(§5) 28 purified sample at 4° C. for 30 min. The co-incubation sample was added to the above-mentioned 96-well flow plate with cells at 100 μl/well, incubated at 4° C. for 30 min, and washed twice with PBS. APC goat anti-mouse IgG (minimum×reactivity) antibody diluted 100 times with PBS (purchased from Biolegend®) was added at 100 μl/well, incubated at 4° C. for 30 min, and washed twice with PBS. PBS was added at 100 μl/well to resuspend cells, and detection was performed on a CytoFlex (Bechman) flow cytometer and the corresponding MFI was calculated.

[11] = biological target: T1, human PD-L2 on CHO cells (CHO-hPD-L2 …); test: flow cytometry on CHO-hPD-L2 cells, PE anti-human IgG-Fc, median fluorescence intensity (MFI)
Description: (§6) The expanded CHO-hPD-L2 cells were adjusted to a cell density of 2×10⁶ cells/ml, and were added to 96-well flow plate at 100 μl/well, and centrifuged for later use. […] The diluted samples were added to the 96-well flow plate with cells at 100 μl/well, incubated at 4° C. for 30 min, and washed twice with PBS. Goat F(ab')2 anti-human IgG-Fc (PE) (purchased from Abcam) diluted 100 times with PBS was added at 100 μl/well, incubated at 4° C. for 30 min, and washed twice with PBS. PBS was added at 100 μl/well to resuspend cells, and detection was performed on a CytoFlex (Bechman) flow cytometer and the corresponding MFI was calculated.

[12] = biological target: B1; test: flow cytometry blocking assay: antibody pre-incubated with biotinylated human PD-L2 protein (1 ug/ml), binding of PD-L2 to CHO-hPD-1 cells read as MFI (APC)
Description: as §1

[13] = biological target: B1; test: BLI (ForteBio), antibody on AHQ sensor, 100 nM PD-L2 antigen, 1:1 model
Description: as §2, §3

[14] = biological target: T1, human PD-L2 on CHO cells (CHO-hPD-L2 …); test: flow cytometry on CHO-hPD-L2 cells, PE anti-human IgG-Fc, MFI; table under the plot, unit from the concentration axis
[15] = biological target: B1; test: BLI (ForteBio), antibody on AHQ sensor, 100 nM PD-L2 antigen, 1:1 model; remark: listed apart in the source
Description: as §2

[16] = biological target: B1; test: flow cytometry blocking assay: antibody pre-incubated with biotinylated human PD-L2 protein (1 ug/ml), binding of PD-L2 to CHO-hPD-1 cells read as MFI (APC); falling curve, the table under the plot calls the half-maximal concentration EC50; unit from the concentration axis
Description: as §4, §5

[17] = biological target: B1; test: flow cytometry blocking assay: antibody pre-incubated with biotinylated human PD-L2 protein (1 ug/ml), binding of PD-L2 to CHO-hPD-1 cells read as MFI
Description: as §1

[18] = biological target: T1, human PD-L2 on CHO cells (CHO-hPD-L2 …); test: flow cytometry on CHO-hPD-L2 cells, PE anti-human IgG-Fc, median fluorescence intensity (MFI); remark: listed apart in the source
Description: as §6

Kd [7] [nM] | koff [7] [s⁻¹] | kon [7] [M⁻¹ s⁻¹] | EC50 (read off the curve) [11] [nM] | IC50 (read off the curve) [12] [nM] | Kd [13] [nM] | koff [13] [s⁻¹] | kon [13] [M⁻¹ s⁻¹] | Kd [15] [nM] | koff [15] [s⁻¹] | kon [15] [M⁻¹ s⁻¹] | Molecule | other results
– | – | – | – | – | – | – | – | – | – | – | control antibody ATE | Kd [1]: 1.16 nM; EC50 [2]: 4.53 nM; EC50 [3]: 6.31 nM; Kd [4]: 1.3 nM
– | – | – | – | – | – | – | – | – | – | – | B1 | binding result [5]: binds
0.96 | 0.000561 | 585000 | – | – | – | – | – | – | – | – | B2 | EC50 (read off the curve) [6]: ~8 nM
1.38 | 0.000309 | 224000 | – | – | – | – | – | – | – | – | B3 | EC50 [8]: 2.55 nM; Kd [9]: 0.223 nM; koff [9]: 9.92e-05 s⁻¹; kon [9]: 445000 M⁻¹ s⁻¹; EC50 (read off the curve) [6]: ~10 nM; EC50 [10]: 5.17 nM
– | – | – | ~3 | ~2 | 1.99 | 0.00059 | 297000 | – | – | – | B4 | –
1.59 | 0.000405 | 254000 | – | – | – | – | – | 1.14 | 0.000424 | 372000 | B5 | EC50 [14]: 1.25 nM; EC50 [8]: 3.74 nM; EC50 [10]: 12.3 nM; EC50 [16]: 8.35 nM
– | – | – | ~4 | ~2 | 1.68 | 0.000577 | 344000 | 1.11 | 0.0004 | 360000 | B6 | EC50 [14]: 1.75 nM; EC50 [16]: 13.4 nM
– | – | – | ~6 | ~2 | 2.5 | 0.000655 | 262000 | 1.27 | 0.0011 | 862000 | B7 | IC50 (read off the curve) [17]: ~9 nM; EC50 (read off the curve) [18]: ~50 nM
